The nature of data set [1]: Solubility in phosphate buffer pH 7.4. In outline:
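Solubility at pH 7.4 determined by stepwise addition of 200 mM phosphate buffer in 100 μL increments to 3 mg peptide, mixing briefly each time, until no insoluble material remained, then measured by liquid chromatography.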

The nature of data set [2]: Serum half-life and percentage remaining at 48 hours. The data set is classed as in vitro ADME. To be noted: both sexes, pH 7.4, human plasma, 500 nM peptide, 37° C.; for half-life at 500 nM: read-out: Serum t1/2 (converted); for remaining at 48 h, 500 nM: plasma (sodium heparin). The method, then:
Human plasma (mixed gender: sodium heparin is used as anti-coagulant; pre-adjusted to pH 7.4—NB alternative species may be used) is spiked with each test peptide (500 nM) and incubated·cn=3) at 37° C. for 48 hours in a 5% CO2 environment. Aliquots are taken at 0. 1, 2, 4, 7, 24 and […] and pH adjusted to pH 3 with 20% formic acid prior to analysis. Appropriate positive control compounds will be incubated in parallel, in addition to a no plasma control, sampled at 0 and 8 hours. All samples will be treated with ice-cold acetonitrile/methanol (4:1 (v/v)) containing internal standard prior to centrifugation at 2000 g and 4° C. for 10 minutes and subjected to LC-MS/MS analysis.
The samples are analyzed by LC-MS/MS using a 6500 (or equivalent) triple quadrupole mass spectrometer (AB Sciex) coupled to an appropriate Liquid Chromatography (LC) system. Protein binding and stability values are determined via peak area ratios using multiple reaction monitoring (MRM) parameters following compound optimisation. Multiple reaction monitoring (MRM) is a highly sensitive method of targeted mass spectrometry (MS) that can be used to selectively detect and quantify peptides based on the screening of specified precursor peptide-to-fragment ion transitions.

Data set [3] addresses T1, full-length human GIPR with an N-terminal FLAG tag (human, UniProt P48546 22-466).
T1 sequence (looked up): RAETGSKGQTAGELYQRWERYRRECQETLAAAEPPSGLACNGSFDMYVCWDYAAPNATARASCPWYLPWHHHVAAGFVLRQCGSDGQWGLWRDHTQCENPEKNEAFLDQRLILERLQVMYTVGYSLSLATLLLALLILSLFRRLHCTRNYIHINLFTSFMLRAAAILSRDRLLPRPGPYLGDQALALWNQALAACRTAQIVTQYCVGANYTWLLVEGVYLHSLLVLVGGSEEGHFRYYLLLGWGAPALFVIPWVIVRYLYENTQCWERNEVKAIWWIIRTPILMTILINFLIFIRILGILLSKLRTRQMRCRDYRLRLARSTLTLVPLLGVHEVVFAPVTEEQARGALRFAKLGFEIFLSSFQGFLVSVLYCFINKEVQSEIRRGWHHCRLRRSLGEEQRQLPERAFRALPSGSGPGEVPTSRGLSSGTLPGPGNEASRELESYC
In words: cell-based or functional assay.

Data set [4] has as its target full-length human GLP-1R with an N-terminal FLAG tag (human, UniProt P43220 24-463). The data set can be described thus: cell-based or functional assay.
The target of the next data set is dog plasma proteins. The data set can be described thus: plasma protein binding, ultracentrifugation, LC-MS/MS.
For the next data set, the target named is human plasma proteins. Described as above.
Data set [5] addresses full-length human GLP-1R with an N-terminal FLAG tag, overexpressed on HEK-293T cells (human, UniProt P43220 24-463). The data set can be described thus: cell-based or functional assay.
In data set [6] the target is T2, full-length human GIPR with an N-terminal FLAG tag, overexpressed on HEK-293T cells (human, UniProt P48546 22-466).
T2 sequence (looked up): T1 sequence (looked up)
The data set can be described thus: cell-based or functional assay.

The mark [7] stands for this setting: pH 7.4, aqueous buffer, pH 7.4 Phosphate Buffer - Solubility, 200 mM Phosphate buffer pH 7.4.
Where [8] appears, read: pH 7.4, solubility in phosphate buffer at pH 7.4, 200 mM phosphate buffer pH 7.4.

Starred links: 1 amine or outer side, 2 acyl side, 3 side chain; linkers in the order of their positions; H or OH if unused. Non-standard residues stand in square brackets, D forms with d. Residues, ends and D or L forms follow the SMILES beside them. Groups on a side chain read outwards from the residue. No end group written: not given here. *: point of attachment. C18 diacid = O=C(O)CCCCCCCCCCCCCCCCC(=O)*; C17 diacid = O=C(O)CCCCCCCCCCCCCCCC(=O)*; γGlu = O=C(O)[C@H](CCC(=O)[*:2])N[*:1]; NMeY = CN[C@@H](Cc1ccc(O)cc1)C(=O)O; AEEA = NCCOCCOCC(=O)O; Aib = CC(C)(N)C(=O)O

Broadly, the solubility is how much of the substance goes into solution per volume. A higher solubility goes with much dissolved substance. For orientation: amount remaining means the share of the starting amount still present when the sample was taken. Low readings indicate a greater loss, high ones greater stability.

The molecule `CC[C@H](C)[C@H](NC(=O)[C@H](CO)NC(=O)[C@H](Cc1ccc(O)cc1)NC(=O)[C@H](CC(=O)O)NC(=O)[C@H](CO)NC(=O)[C@@H](NC(=O)[C@H](Cc1ccccc1)NC(=O)[C@@H](NC(=O)CNC(=O)[C@H](CCC(=O)O)NC(=O)C(C)(C)NC(=O)[C@H](Cc1ccc(O)cc1)NC)[C@@H](C)O)[C@@H](C)CC)C(=O)N[C@@H](C)C(=O)N[C@@H](CC(C)C)C(=O)N[C@@H](CC(=O)O)C(=O)N[C@@H](CCCNC(=N)N)C(=O)N[C@H](C(=O)N[C@@H](Cc1c[nH]cn1)C(=O)N[C@@H](CCC(N)=O)C(=O)NC(C)(C)C(=O)N[C@@H](CC(N)=O)C(=O)N[C@@H](Cc1ccccc1)C(=O)N[C@H](C(=O)N[C@@H](CC(N)=O)C(=O)N[C@@H](Cc1c[nH]c2ccccc12)C(=O)N[C@@H](CC(C)C)C(=O)N[C@@H](CC(C)C)C(=O)N[C@@H](C)C(=O)N[C@@H](CCC(N)=O)C(=O)N[C@@H](CCCCNC(=O)COCCOCCNC(=O)COCCOCCNC(=O)CC[C@H](NC(=O)CCCCCCCCCCCCCCCCC(=O)O)C(=O)O)C(=O)N1CCC[C@H]1C(=O)N[C@@H](CO)C(=O)N[C@@H](CO)C(=O)NCC(=O)N[C@@H](C)C(=O)N1CCC[C@H]1C(=O)N1CCC[C@H]1C(=O)N1CCC[C@H]1C(=O)N[C@@H](CO)C(N)=O)C(C)C)[C@@H](C)CC` [Compound 2] (H-[NMeY][Aib]EGTFISDYSIALDRIHQ[Aib]NFVNWLLAQK([AEEA-AEEA-γGlu-C18 diacid])PSSGAPPPS-NH2) yielded a solubility in data set [1] (setting [7]) not below 30 mg/mL. Besides, in data set [1] (setting [8]), the solubility was not below 15 mg/mL. Moreover, in data set [2], the half-life at 500 nM was 24.1 h and the amount remaining at 48 h, 500 nM turned out to be 27%.

In data set [1] (setting [7]), `CC[C@H](C)[C@H](NC(=O)[C@H](CO)NC(=O)[C@H](Cc1ccc(O)cc1)NC(=O)[C@H](CC(=O)O)NC(=O)[C@H](CO)NC(=O)[C@@H](NC(=O)[C@H](Cc1ccccc1)NC(=O)[C@@H](NC(=O)CNC(=O)[C@H](CCC(=O)O)NC(=O)C(C)(C)NC(=O)[C@H](Cc1ccc(O)cc1)NC)[C@@H](C)O)[C@@H](C)CC)C(=O)N[C@@H](C)C(=O)N[C@@H](CCCCNC(=O)COCCOCCNC(=O)COCCOCCNC(=O)CC[C@H](NC(=O)CCCCCCCCCCCCCCCCC(=O)O)C(=O)O)C(=O)N[C@@H](CC(=O)O)C(=O)N[C@@H](CCCNC(=N)N)C(=O)N[C@H](C(=O)N[C@@H](Cc1c[nH]cn1)C(=O)N[C@@H](CCC(N)=O)C(=O)N[C@@H](CCC(N)=O)C(=O)N[C@@H](CC(N)=O)C(=O)N[C@@H](Cc1ccccc1)C(=O)N[C@H](C(=O)N[C@@H](CC(N)=O)C(=O)N[C@@H](Cc1c[nH]c2ccccc12)C(=O)N[C@@H](CC(C)C)C(=O)N[C@@H](CC(C)C)C(=O)N[C@@H](C)C(=O)N[C@@H](CCC(N)=O)C(=O)N[C@@H](CCCNC(=N)N)C(=O)N1CCC[C@H]1C(=O)N[C@@H](CO)C(=O)N[C@@H](CO)C(=O)NCC(=O)N[C@@H](C)C(=O)N1CCC[C@H]1C(=O)N1CCC[C@H]1C(=O)N1CCC[C@H]1C(=O)N[C@@H](CO)C(N)=O)C(C)C)[C@@H](C)CC` [Compound 3] (H-[NMeY][Aib]EGTFISDYSIAK([AEEA-AEEA-γGlu-C18 diacid])DRIHQQNFVNWLLAQRPSSGAPPPS-NH2) showed a solubility not below 30 mg/mL. This molecule also had a solubility in data set [1] (setting [8]) not below 15 mg/mL. In data set [2], the half-life at 500 nM is 15.9 h and the fraction remaining at 48 h, 500 nM is 13%.

Take [NMeY][Aib]EGTFISDYSIALDR[Aib]AQ[Aib]K(2OEGgEgE‑C20 diacid)FVNWLLAQKG-OH [Compound No. 39]: the “Human GIPR cAMP EC50, HEK293T” value in data set [3] turned out to be 0.0017 nM. For the same molecule, the “Human GLP1R cAMP EC50, HEK293T” value in data set [4] stood at 13.2 nM. The molecule also registered a Dog PPB (FUplasma), fraction unbound in plasma (fraction unbound) with dog plasma proteins of 0.0015. Further, the Human PPB (FUplasma), fraction unbound in plasma (fraction unbound) with human plasma proteins was found to be 0.0112.

For [NMeY][Aib]EGTFISDYSIALDR[Aib]K([AEEA-AEEA-γGlu-γGlu-C18 diacid])Q[Aib]NFVNWLLAQSPSSGAPPPS-NH2 [Compound No. 293], the “Human GLP1R cAMP EC50, HEK293T” value in data set [5] came to 129 nM. Moreover, the “Human GIPR cAMP EC50, HEK293T” value in data set [6] came to 0.0004 nM. In the data set with dog plasma proteins, this molecule yielded a Dog PPB (FUplasma), fraction unbound in plasma (fraction unbound) of less than 0.002. For the same molecule, the Human PPB (FUplasma), fraction unbound in plasma (fraction unbound) in the data set with human plasma proteins is less than 0.002.

As for [NMeY][Aib]EGTFISDYSIALDR[Aib]AQ[Aib]K([2OEGgEgE-C17 diacid])FVNWLLAQR-NH2 [Compound No. 8], the “Human GIPR cAMP EC50, HEK293T” value in data set [3] came out at 0.0003 nM. Further, the “Human GLP1R cAMP EC50, HEK293T” value in data set [4] came to 41.4 nM. In addition, the Dog PPB (FUplasma), fraction unbound in plasma (fraction unbound) with dog plasma proteins worked out at 0.0016. This molecule returned a Human PPB (FUplasma), fraction unbound in plasma (fraction unbound) with human plasma proteins of 0.0009.

Turning to [NMeY][Aib]EGTFISDYSI[Aib]LDR[Aib]AQ[Aib]NFVNWLLAQK([AEEA-AEEA-γGlu-γGlu-C18 diacid])PSSGAPPPS-NH2 [Compound No. 27], the “Human GIPR cAMP EC50, HEK293T” value in data set [3] turned out to be 0.0004 nM. Moreover, the “Human GLP1R cAMP EC50, HEK293T” value in data set [4] is 87.1 nM. The Dog PPB (FUplasma), fraction unbound in plasma (fraction unbound) in the data set with dog plasma proteins is less than 0.002. In the data set with human plasma proteins, the Human PPB (FUplasma), fraction unbound in plasma (fraction unbound) was determined as 0.0013.

For [NMeY][Aib]EGTFISDYSIALDR[Aib]AQ[Aib]K([AEEA-AEEA-γGlu-γGlu-C17 diacid])FVNWLLAQRG-OH [Compound No. 36], the “Human GIPR cAMP EC50, HEK293T” value in data set [3] turned out to be 0.0007 nM. For the same molecule, in data set [4], the “Human GLP1R cAMP EC50, HEK293T” value worked out at 87.1 nM. This molecule also came in with a Dog PPB (FUplasma), fraction unbound in plasma (fraction unbound) with dog plasma proteins of 0.0034. In addition, the Human PPB (FUplasma), fraction unbound in plasma (fraction unbound) with human plasma proteins is less than 0.002.

In the case of [NMeY][Aib]EGTFISDYSIALDR[Aib]K([AEEA-AEEA-γGlu-γGlu-C17 diacid])Q[Aib]NFVNWLLAQSPSSGAPPPS-NH2 [Compound No. 11], the “Human GIPR cAMP EC50, HEK293T” value in data set [3] worked out at 0.0003 nM. In data set [4], the “Human GLP1R cAMP EC50, HEK293T” value was found to be 1000 nM. Moreover, in the data set with dog plasma proteins, the Dog PPB (FUplasma), fraction unbound in plasma (fraction unbound) was less than 0.0024. This molecule also showed a Human PPB (FUplasma), fraction unbound in plasma (fraction unbound) in the data set with human plasma proteins of 0.0038.

In the case of [NMeY][Aib]EGTFISDYSIALDR[Aib]AQ[Aib]K([AEEA-AEEA-γGlu-γGlu-C18 diacid])FVNWLLAQRG-OH [Compound No. 37], the “Human GIPR cAMP EC50, HEK293T” value in data set [3] amounted to 0.0005 nM. In addition, the “Human GLP1R cAMP EC50, HEK293T” value in data set [4] is 44.7 nM. Also, the Dog PPB (FUplasma), fraction unbound in plasma (fraction unbound) in the data set with dog plasma proteins was found to be 0.0012. In addition, the Human PPB (FUplasma), fraction unbound in plasma (fraction unbound) with human plasma proteins amounted to 0.001.

As to [NMeY][Aib]EGTFISDYSI[Aib]LDR[Aib]AQ[Aib]K([2OEGgEgE-C18 diacid])FVNWLLAQRG-OH [Compound No. 72], in data set [3], the “Human GIPR cAMP EC50, HEK293T” value is 0.0005 nM. Besides, the “Human GLP1R cAMP EC50, HEK293T” value in data set [4] is 43.2 nM. Also, the Dog PPB (FUplasma), fraction unbound in plasma (fraction unbound) with dog plasma proteins is 0.0062. Moreover, the Human PPB (FUplasma), fraction unbound in plasma (fraction unbound) with human plasma proteins stood at 0.0036.

The record behind these values is US20230143604A1, “QW DOSING OF GIP RECEPTOR AGONIST PEPTIDE COMPOUNDS AND USES THEREOF” (TAKEDA PHARMACEUTICAL COMPANY LIMITED, priority 2020, published 2023).
